Consider 40 sequences from patent US20160193316A1 (priority 1994, published 2016).

The target in one experiment is T1, HLA-A*0301 (Homo sapiens, UniProt P04439).
T1 construct: endogenous in cells; host or cells: GM3107
The experiment can be described thus: HLA class I peptide binding assay. Conditions: for A*0301 (binding information): Table XVI, Malaria A3 motif peptides; for A*301 (binding data): Malaria A03 supermotif peptides, binding value, no unit given.

The target of the next experiment is T2, DRB1*0401 (DR4w4) (Homo sapiens, UniProt P01903+P01911, A100K/A169T/F76Y/I96L/K127E/L162R/M171V/N62H/P40V/Q125Y/R42H/S133A/S149N/S66Y/V115G/V209L/W38E).
T2 construct: endogenous in cells; host or cells: Preiss
The experiment in a line: HLA class II peptide binding assay. Conditions: Table XIXb; DR4w4.

The next experiment has as its target T3, DRB1*0101 (DR1) (Homo sapiens, UniProt P01903+P01911, A100R/D57E/F55L/F60I/F76Y/I96L/L162R/M171V/P40L/Q125E/R42F/V115G/Y59C).
T3 construct: endogenous in cells; host or cells: LG2
The experiment can be described thus: HLA class II peptide binding assay. Conditions: Table XIXb, Malaria Super Motif Peptides With Binding Data; DR1.

The next experiment concerns the target T4, DRB1*0701 (DR7) (Homo sapiens, UniProt P01903+P01911, A100R/A102G/A103Q/D57E/D86V/E43K/F76Y/K127E/L162R/M171V/P40G/Q125H/Q99D/R33Q/R42Y/R54Q/S133A/S66F/T210M/V115G/Y107V/Y59L/Y89S).
T4 construct: endogenous in cells; host or cells: Pitout
The experiment in a line: biochemical. Type of experiment: binding.

Another experiment concerns the target T5, DRB1*0301 (DR3) (Homo sapiens, UniProt P01903+P01911, A100K/A102G/A103R/A169T/F55Y/I96L/K41T/L162R/M171V/P40S/Q125H/Q178H/Q39Y/R42S/S66N/T106N/T262R/W38E/Y61H).
T5 construct: endogenous in cells; host or cells: MAT
The experiment can be described thus: HLA class II peptide binding assay (pH 4.5). Conditions: unit not given.

For a further experiment, the target named is T6, DRB1*0802 (DR8w2) (Homo sapiens, UniProt P01903+P01911, A100R/A103L/A169T/F76Y/H45Y/I96F/K41T/L162R/M171V/P40S/Q125H/Q178H/Q39Y/Q99D/R218S/R42G/S66Y/V115G/W38E).
T6 construct: endogenous in cells; host or cells: OLL
The experiment in a line: biochemical. Type of experiment: binding.

In a further experiment the target is T7, DRB1*0405 (DR4w15) (Homo sapiens, UniProt P01903+P01911, A100R/A169T/D86S/F76Y/I96L/K127E/L162R/M171V/N62H/P40V/Q125Y/R42H/S133A/S149N/S66Y/V115G/V209L/W38E).
T7 construct: endogenous in cells; host or cells: KT3
The experiment in a line: HLA class II peptide binding assay. Conditions: Table XIXb; DR4w15.

For the next experiment, the target named is T8, DRB1*1101 (DR5w11) (Homo sapiens, UniProt P01903+P01911, A100R/A169T/A87E/I96F/K41T/L162R/M171V/P40S/Q125H/Q178H/Q39Y/Q99D/R42S/S66Y/T262R/V115G/W38E).
T8 construct: endogenous in cells; host or cells: Sweig
The experiment in a line: biochemical. Type of experiment: binding.

In a further experiment the target is T9, DRB5*0101 (DR2w2β2) (Homo sapiens, UniProt P01903+Q30154).
T9 construct: expressed in transfected cells; host or cells: L416.3 (fibroblasts) or GM3107
Type of experiment: binding.

Another experiment has as its target T10, DRB1*1201 (DR5w12) (Homo sapiens, UniProt P01903+P01911, A100R/A169T/D57E/D86V/F55L/H45Y/K41T/L162R/M171V/P40S/Q125H/Q178H/Q39Y/Q99D/R42G/S66L/T262R/V114A/V67L/W38E/Y59H/Y61H/Y89S).
T10 construct: endogenous in cells; host or cells: Herluf
The experiment can be described thus: HLA class II peptide binding assay. To be noted: Table XIXb; DR5w12.

Setting [1] is: HLA-A*0301 binding value, unit not given.
Where [2] appears, read: DR3a motif peptides, exemplary 15-mer containing the core sequence.
The mark [3] stands for this setting: binding value to HLA-A*0301, unit not given.
Setting [4] is: binding value for HLA-A*0301, unit not given.

T3 sequence (P01903 26-254 partner, other chains not shown): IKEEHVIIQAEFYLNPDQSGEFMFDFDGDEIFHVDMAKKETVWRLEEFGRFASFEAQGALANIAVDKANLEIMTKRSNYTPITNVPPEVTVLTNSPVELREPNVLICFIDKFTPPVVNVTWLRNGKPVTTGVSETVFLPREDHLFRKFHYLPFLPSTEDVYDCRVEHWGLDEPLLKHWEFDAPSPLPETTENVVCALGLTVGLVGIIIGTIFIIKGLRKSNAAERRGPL
T2 sequence (P01903 26-254 partner, other chains not shown): as above
T8 sequence (P01903 26-254, other chains not shown): as the sequence (P01903 26-254 partner, other chains not shown) above

With MTTNVEGR, in the experiment with HLA-A*0301 (setting [1]), the “A*0301 (binding information)” value turned out to be 0.0002.
In the experiment with DRB1*0401 (DR4w4), FDLFLVNGR registered a DR4w4 binding data of 0.0036. The DR1 binding data in the experiment with DRB1*0101 (DR1) is 0.0042. The DR7 binding data in the experiment with DRB1*0701 (DR7) stood at 0.0470.
The sequence FKPNDKSLY yielded a DR3 binding information with DRB1*0301 (DR3) (Malaria DR3b motif peptides) of 0.1700.
As for LSEEKIKKG, in the experiment with DRB1*0301 (DR3) (setting [2]), the DR3 binding information is reported as -0.0033.
With NSRNRKNEEK, the “A*0301 (binding information)” value with HLA-A*0301 (setting [1]) was found to be 0.0004.
VEKTASCGV: the DR4w4 binding data in the experiment with DRB1*0401 (DR4w4) came out at 0.0021. Moreover, the DR8w2 binding data with DRB1*0802 (DR8w2) worked out at 0.0005. This sequence also displayed a DR1 binding data with DRB1*0101 (DR1) of 0.0004. In the experiment with DRB1*0405 (DR4w15), this sequence displayed a DR4w15 binding data of -0.0009. The sequence also gave a DR5w11 binding data with DRB1*1101 (DR5w11) of -0.0002. Further, the DR2w2β2 binding data with DRB5*0101 (DR2w2β2) is reported as -0.0009. The DR7 binding data with DRB1*0701 (DR7) was determined as 0.0095. The sequence further had a DR5w12 binding data with DRB1*1201 (DR5w12) of 0.0001.
As for QSQDNNONRH (QSQDNNGNRH), the “A*0301 (binding information)” value with HLA-A*0301 (setting [3]) is on record as 0.0004.
With ITINVEGRR, the “A*301 (binding data)” value with HLA-A*0301 is recorded as 0.0002.
With LPQDNRGNS, the DR3 binding information in the experiment with DRB1*0301 (DR3) (Malaria DR3b motif peptides) was -0.0033.
In the experiment with DRB1*0301 (DR3) (setting [2]), LFVEALFQE had a DR3 binding information of 0.0051.
In the case of SDASICNKEK, in the experiment with HLA-A*0301 (setting [3]), the “A*0301 (binding information)” value was determined as 0.0005.
For the sequence LYNELEMNY, in the experiment with DRB1*0301 (DR3) (setting [2]), the DR3 binding information came to 0.0270.
Still for that read-out and setting: then LHSDASKNK, with -0.0033.
On to NTEKGFHPFK, for which the “A*0301 (binding information)” value in the experiment with HLA-A*0301 (setting [4]) turned out to be 0.0047.
For KSLYDEIHK, the “A*0301 (binding information)” value in the experiment with HLA-A*0301 (setting [1]) is reported as 0.0005.
For the sequence VNKEKEKFI, the DR3 binding information in the experiment with DRB1*0301 (DR3) (setting [2]) is -0.0033.
On to FLVNGRDVQ, for which, in the experiment with DRB1*0301 (DR3) (Malaria DR3b motif peptides), the DR3 binding information was -0.0033.
On to LSTEWSPCS, for which the DR3 binding information in the experiment with DRB1*0301 (DR3) (setting [2]) is given as -0.0033.
Turning to VDLYLLMDC, the DR4w4 binding data with DRB1*0401 (DR4w4) is 0.0028. Besides, the DR8w2 binding data in the experiment with DRB1*0802 (DR8w2) is on record as -0.0003. Moreover, in the experiment with DRB1*0101 (DR1), the DR1 binding data came to 0.0001. Also, in the experiment with DRB1*0405 (DR4w15), the DR4w15 binding data was -0.0009. In addition, the DR5w11 binding data in the experiment with DRB1*1101 (DR5w11) is given as -0.0002. The sequence further showed a DR2w2β2 binding data with DRB5*0101 (DR2w2β2) of -0.0005. Besides, in the experiment with DRB1*0701 (DR7), the DR7 binding data is -0.0003. The sequence also gave a DR5w12 binding data with DRB1*1201 (DR5w12) of 0.0001.
In turn, INEEKHEKK returned a DR3 binding information with DRB1*0301 (DR3) (Malaria DR3b motif peptides) of 0.0420.
Regarding DLERTICASK, the “A*301 (binding data)” value with HLA-A*0301 worked out at 0.0001.
As for DTKIMERK, in the experiment with HLA-A*0301 (setting [4]), the “A*0301 (binding information)” value was found to be 0.0001.
Regarding LGEEDKDLD, the DR3 binding information with DRB1*0301 (DR3) (Malaria DR3b motif peptides) is reported as -0.0130.
For the sequence CGKGIRSRKR, in the experiment with HLA-A*0301 (setting [3]), the “A*0301 (binding information)” value amounted to 0.0002.
Consider ISHEKTNR, for which the “A*0301 (binding information)” value in the experiment with HLA-A*0301 (setting [1]) is reported as 0.0001.
On to LETVNISDV, for which, in the experiment with DRB1*0401 (DR4w4), the DR4w4 binding data is -0.0007. The same sequence displayed a DR1 binding data with DRB1*0101 (DR1) of 0.0001. Besides, the DR4w15 binding data with DRB1*0405 (DR4w15) stood at 0.0016. In the experiment with DRB1*1101 (DR5w11), the DR5w11 binding data is reported as -0.0002. This sequence registered a DR2w2β2 binding data in the experiment with DRB5*0101 (DR2w2β2) of -0.0005. In the experiment with DRB1*1201 (DR5w12), this sequence came in with a DR5w12 binding data of 0.0015.
Take VLYNTEKGRS: the “A*301 (binding data)” value with HLA-A*0301 worked out at 0.0110.
In the experiment with DRB1*0301 (DR3) (setting [2]), VQYDNFQDE showed a DR3 binding information of -0.0033.
Regarding LVGCHPSDOK (LVGCHPSDGK), the “A*0301 (binding information)” value in the experiment with HLA-A*0301 (setting [3]) worked out at 0.0004.
On to NSEKDFIKK, for which, in the experiment with HLA-A*0301 (setting [1]), the “A*0301 (binding information)” value is recorded as 0.0002.
Take YAGEPAPFD: the DR3 binding information with DRB1*0301 (DR3) (setting [2]) is recorded as -0.0130.
Still for that read-out and setting: in the case of IKKEEELVE it was -0.0033.
For RINEEKNEKK, in the experiment with HLA-A*0301 (setting [1]), the “A*0301 (binding information)” value is reported as 0.0024.
For LDNERKQSD, the DR3 binding information in the experiment with DRB1*0301 (DR3) (Malaria DR3b motif peptides) is on record as -0.0130.
For NSEKDETIK, the “A*301 (binding data)” value in the experiment with HLA-A*0301 is recorded as 0.0002.
In the case of ESLAEKTNIC, in the experiment with HLA-A*0301 (setting [4]), the “A*0301 (binding information)” value turned out to be 0.0001.
In the experiment with DRB1*0301 (DR3) (setting [2]), ISAEYDDSL displayed a DR3 binding information of -0.0033.
Consider DIPICKPENKH, for which the “A*0301 (binding information)” value in the experiment with HLA-A*0301 (setting [3]) worked out at 0.0002.
Regarding IKPEQKEDK, the DR3 binding information with DRB1*0301 (DR3) (Malaria DR3b motif peptides) is -0.0033.
In turn, VLNELNYDN displayed a DR3 binding information in the experiment with DRB1*0301 (DR3) (setting [2]) of -0.0033.
